Patent publication US20220332785A1

B1: 4285-PBL-TCR3 (TCR)
TCR alpha: KDQVFQPSTVASSEGAVVEIFCNHSVSNAYNFFWYLHFPGCAPRLLVKGSKPSQQGRYNMTYERFSSSLLILQVREADAAVYYCAVEDRRRTALIFGKGTTLSVSSNIQNPEPAVYQLKDPRSQDSTLCLFTDFDSQINVPKTMESGTFITDKCVLDMKAMDSKSNGAIAWSNQTSFTCQDIFKETNATYPSSDVPCDATLTEKSFETDMNLNFQNLLVIVLRILLLKVAGFNLLMTLRLWSS
TCR beta: EPEVTQTPSHQVTQMGQEVILRCVPISNHLYFYWYRQILGQKVEFLVSFYNNEISEKSEIFDDQFSVERPDGSNFTLKIRSTKLEDSAMYFCASSEYQSQSNEQFFGPGTRLTVLEDLRNVTPPKVSLFEPSKAEIANKQKATLVCLARGFFPDHVELSWWVNGKEVHSGVCTDPQAYKESNYSYCLSSRLRVSATFWHNPRNHFRCQVQFHGLSEEDKWPEGSPKPVTQNISAEAWGRADCGITSASYQQGVLSATILYEILLGKATLYAVLVSTLVVMAMVKRKNS
B2: 4285-PBL-TCR2 (TCR)
TCR alpha: KTTQPPSMDCAEGRAANLPCNHSTISGNEYVYWYRQIHSQGPQYIIHGLKNNETNEMASLIITEDRKSSTLILPHATLRDTAVYYCIVRARANAGGTSYGKLTFGQGTILTVHPNIQNPEPAVYQLKDPRSQDSTLCLFTDFDSQINVPKTMESGTFITDKCVLDMKAMDSKSNGAIAWSNQTSFTCQDIFKETNATYPSSDVPCDATLTEKSFETDMNLNFQNLLVIVLRILLLKVAGFNLLMTLRLWSS
TCR beta: GITQSPKYLFRKEGQNVTLSCEQNLNHDAMYWYRQDPGQGLRLIYYSQIVNDFQKGDIAEGYSVSREKKESFPLTVTSAQKNPTAFYLCASLQFNEQFFGPGTRLTVLEDLRNVTPPKVSLFEPSKAEIANKQKATLVCLARGFFPDHVELSWWVNGKEVHSGVCTDPQAYKESNYSYCLSSRLRVSATFWHNPRNHFRCQVQFHGLSEEDKWPEGSPKPVTQNISAEAWGRADCGITSASYQQGVLSATILYEILLGKATLYAVLVSTLVVMAMVKRKNS
B3: 4285-PBL-TCR5 (TCR)
TCR alpha: KTTQPPSMDCAEGRAANLPCNHSTISGNEYVYWYRQIHSQGPQYIIHGLKNNETNEMASLIITEDRKSSTLILPHATLRDTAVYYCIVRGSPGAGGTSYGKLTFGQGTILTVHPNIQNPEPAVYQLKDPRSQDSTLCLFTDFDSQINVPKTMESGTFITDKCVLDMKAMDSKSNGAIAWSNQTSFTCQDIFKETNATYPSSDVPCDATLTEKSFETDMNLNFQNLLVIVLRILLLKVAGFNLLMTLRLWSS
TCR beta: GITQSPKYLFRKEGQNVTLSCEQNLNHDAMYWYRQDPGQGLRLIYYSQIVNDFQKGDIAEGYSVSREKKESFPLTVTSAQKNPTAFYLCASSIRTEAFFGQGTRLTVVEDLRNVTPPKVSLFEPSKAEIANKQKATLVCLARGFFPDHVELSWWVNGKEVHSGVCTDPQAYKESNYSYCLSSRLRVSATFWHNPRNHFRCQVQFHGLSEEDKWPEGSPKPVTQNISAEAWGRADCGITSASYQQGVLSATILYEILLGKATLYAVLVSTLVVMAMVKRKNS
B4: 4285-PBL-TCR9 (TCR)
TCR alpha: KTTQPPSMDCAEGRAANLPCNHSTISGNEYVYWYRQIHSQGPQYIIHGLKNNETNEMASLIITEDRKSSTLILPHATLRDTAVYYCIVRARANAGGTSYGKLTFGQGTILTVHPNIQNPEPAVYQLKDPRSQDSTLCLFTDFDSQINVPKTMESGTFITDKCVLDMKAMDSKSNGAIAWSNQTSFTCQDIFKETNATYPSSDVPCDATLTEKSFETDMNLNFQNLLVIVLRILLLKVAGFNLLMTLRLWSS
TCR beta: GITQSPKYLFRKEGQNVTLSCEQNLNHDAMYWYRQDPGQGLRLIYYSQIVNDFQKGDIAEGYSVSREKKESFPLTVTSAQKNPTAFYLCATRTGNEAFFGQGTRLTVVEDLRNVTPPKVSLFEPSKAEIANKQKATLVCLARGFFPDHVELSWWVNGKEVHSGVCTDPQAYKESNYSYCLSSRLRVSATFWHNPRNHFRCQVQFHGLSEEDKWPEGSPKPVTQNISAEAWGRADCGITSASYQQGVLSATILYEILLGKATLYAVLVSTLVVMAMVKRKNS
B5: 4285-PBL-TCR1 (TCR)
TCR alpha: KTTQPNSMESNEEEPVHLPCNHSTISGTDYIHWYRQLPSQGPEYVIHGLTSNVNNRMASLAIAEDRKSSTLILHRATLRDAAVYYCILRDNNARLMFGDGTQLVVKPNIQNPEPAVYQLKDPRSQDSTLCLFTDFDSQINVPKTMESGTFITDKCVLDMKAMDSKSNGAIAWSNQTSFTCQDIFKETNATYPSSDVPCDATLTEKSFETDMNLNFQNLLVIVLRILLLKVAGFNLLMTLRLWSS
TCR beta: QVTQNPRYLITVTGKKLTVTCSQNMNHEYMSWYRQDPGLGLRQIYYSMNVEVTDKGDVPEGYKVSRKEKRNFPLILESPSPNQTSLYFCASGLVGFNQPQHFGDGTRLSILEDLRNVTPPKVSLFEPSKAEIANKQKATLVCLARGFFPDHVELSWWVNGKEVHSGVCTDPQAYKESNYSYCLSSRLRVSATFWHNPRNHFRCQVQFHGLSEEDKWPEGSPKPVTQNISAEAWGRADCGITSASYQQGVLSATILYEILLGKATLYAVLVSTLVVMAMVKRKNS
B6: 4285-PBL-TCR7 (TCR)
TCR alpha: ELKVEQNPLFLSMQEGKNYTIYCNYSTTSDRLYWYRQDPGKSLESLFVLLSNGAVKQEGRLMASLDTKARLSTLHITAAVHDLSATYFCAVAHMDSNYQLIWGAGTKLIIKPNIQNPEPAVYQLKDPRSQDSTLCLFTDFDSQINVPKTMESGTFITDKCVLDMKAMDSKSNGAIAWSNQTSFTCQDIFKETNATYPSSDVPCDATLTEKSFETDMNLNFQNLLVIVLRILLLKVAGFNLLMTLRLWSS
TCR beta: GVTQTPKFRVLKTGQSMTLLCAQDMNHEYMYWYRQDPGMGLRLIHYSVGEGTTAKGEVPDGYNVSRLKKQNFLLGLESAAPSQTSVYFCASSYAGLAAPREQFFGPGTRLTVLEDLRNVTPPKVSLFEPSKAEIANKQKATLVCLARGFFPDHVELSWWVNGKEVHSGVCTDPQAYKESNYSYCLSSRLRVSATFWHNPRNHFRCQVQFHGLSEEDKWPEGSPKPVTQNISAEAWGRADCGITSASYQQGVLSATILYEILLGKATLYAVLVSTLVVMAMVKRKNS
B7: 4285-PBL-TCR6 (TCR)
TCR alpha: QQVMQIPQYQHVQEGEDFTTYCNSSTTLSNIQWYKQRPGGHPVFLIQLVKSGEVKKQKRLTFQFGEAKKNSSLHITATQTTDVGTYFCAGPGGAGSYQLTFGKGTKLSVIPNIQNPEPAVYQLKDPRSQDSTLCLFTDFDSQINVPKTMESGTFITDKCVLDMKAMDSKSNGAIAWSNQTSFTCQDIFKETNATYPSSDVPCDATLTEKSFETDMNLNFQNLLVIVLRILLLKVAGFNLLMTLRLWSS
TCR beta: QVTQNPRYLITVTGKKLTVTCSQNMNHEYMSWYRQDPGLGLRQIYYSMNVEVTDKGDVPEGYKVSRKEKRNFPLILESPSPNQTSLYFCASSPFVVIGQINEQYFGPGTRLTVTEDLRNVTPPKVSLFEPSKAEIANKQKATLVCLARGFFPDHVELSWWVNGKEVHSGVCTDPQAYKESNYSYCLSSRLRVSATFWHNPRNHFRCQVQFHGLSEEDKWPEGSPKPVTQNISAEAWGRADCGITSASYQQGVLSATILYEILLGKATLYAVLVSTLVVMAMVKRKNS

biological target: p53^R175H LP … (SEQ ID NO: 111) in the context of HLA-DRB1*13:01 (human); assay: cell-based or functional assay

Functional avidity: interferon-gamma secretion (ELISA), lowest peptide concentration recognized, 10 ng/mL:
B1
B2
B3
B4
B5
B6
B7
